Tests used:
[1] = molecular target: Human FcRn Protein, His Tag (ACRO Biosystems, Cat.No.FCN-H52W7) (human) (UniProt P55899); test: competition ELISA against Biotin-IgG on FcRn-His, relative to the reference antibody (SEQ ID NO: 180/181)
[2] = molecular target: T1, 人FcRn胞外区-β2M复合物(带His标签的重组蛋白) (human, UniProt P61769 21-119); test: hybridoma screening: binding ELISA, cell binding and cell blocking
T1 construct: also called FcRn抗原; 人FcRn-β2M复合物; not shown: His tag

生物学活性(相对参考品) [1] [%]	binding result [2]	Molecule
0		不针对FcRn靶点的无关抗体(IgG4亚型，迈晋生物自制) (antibody)
	binds	hybri11 (antibody, V domains shown, Mouse hybridoma antibody; tested as hybridoma supernatant/purified antibody; also called 阳性克隆hybri11) VH: QVQLQQPGAELVKPGASVKVSCKASGSTFTSYYMHWVKQRPGQGLEWIGRIHPSNSDSNYNQKFKGKATLTVDKSSSTAYMQLSSLTSEDSAVYYCAMKRDGYYEGFPHWGQGTLVTVSA VL: DIQMTQSPASQSASLGESVTITCLASQTIGTWLAWYQQKPGKSPQLLIYAATSLADGVPSRFSGSRSGTKFSFKISSLQAEDFVSYYCQQLYSTPYTFGGGTKLEIK
